# Measured values taken from paper PMC2199739.
# pKd: −log10 of the molar value.
# How the values were obtained:
# [1] = molecular target: human uPAR overexpressed on MCF-7 cells (clone M5) (human) (UniProt Q03405); assay: radioligand binding
# [2] = molecular target: urokinase-type plasminogen activator receptor (uPAR) on HT 1080 cells (human (endogenous in HT 1080)) (UniProt Q03405); assay: radioligand binding
substance,measurement,setting,value
^125I-DIP-uPA (radioiodinated two chain urokinase-type plasminogen activator inactivated with diisopropylfluorophosphate) (ligand),pKd,[1],8.92
same,pKd,[2],8.92
